# What was measured:
# mouse DMPK RNA = experiment: Example 8: mouse DMPK RNA and ED50 in tissues of hTFR^KI/+ knock in mice, multiple dose (RTPCR, day 15); format: in vivo;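 note: conjugated oligonucleotide given as three doses to hTFR^KI/+ knock-in mice, tissues taken at day 15 and mouse DMPK RNA quantified by real-time RT-PCR against PBS-treated controls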
# Method: The activity and tolerability of modified oligonucleotides conjugated to CD71 bicycle ligands were tested in hTFR^KI/+ knock in mice (described herein above).
# (§1) Each mouse received an intravenous (i.v.) administration or subcutaneous (s.c.) administration of conjugated modified oligonucleotide for a total of 3 doses (on Days 1, 5, and 9) at doses indicated in the table below. […] A group of 4 mice received PBS as a negative control.
# The mice were sacrificed six days post final administration (on day 15), and RNA was extracted from various muscle tissues (including quadriceps (Quad), tibialis anterior (TA), diaphragm, triceps, heart, gastrocnemius (gastroc)), aorta, sciatic nerve, and liver tissue for quantitative real time RTPCR analysis to measure amount of mouse DMPK RNA using mouse primer probe set RTS3181 (described herein above).
# [1] = Example 8: plasma chemistry markers in hTFR^KI/+ knock in mice; format: in vivo, mouse; conditions: plasma day 15;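 note: plasma levels read on an automated clinical chemistry analyzer after three doses of conjugated modified oligonucleotide, with a PBS-treated group as negative control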
# From the text: as §1
# To evaluate the effect of modified oligonucleotides on liver and kidney function, plasma levels of albumin (ALB), alanine aminotransferase (ALT), aspartate aminotransferase (AST), blood urea nitrogen (BUN), total bilirubin (TBIL), total Protein (PROT), Creatine (CREAT), and Creatine Kinase (CK) were measured on the day the mice were sacrificed (day 15) using an automated clinical chemistry analyzer (Hitachi Olympus AU400c, Melville, NY).
# [2] = Example 8: hematology assays / blood cell counts in hTFR^KI/+ knock in mice; format: in vivo, mouse; conditions: for Mean corpuscular volume (MCV) / hematocrit (HCT) / hemoglobin (HGB) / mean corpuscular hemoglobin (MCH) / mean corpuscular hemoglobin concentration (MCHC) / red blood cell (RBC) count / white blood cell (WBC) count: blood day 15; for BAS (basophils) / LYM (lymphocytes) / MON (monocytes) / NEU (neutrophils) / PLT (platelets) / RETI (reticulocytes): day 15;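 for all read-outs here: mice given conjugated modified oligonucleotide, three doses total, blood cell counts measured at sacrifice, PBS-treated group of 4 mice serves as negative control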
# From the text: as §1
# Blood obtained from mice on the day the mice were sacrificed (day 15) were sent to IDEXX BioResearch for measurement of blood cell counts. Counts taken include red blood cell (RBC) count, white blood cell (WBC) count, hemoglobin (HGB), hematocrit (HCT), Mean corpuscular volume (MCV), mean corpuscular hemoglobin (MCH), and mean corpuscularhemoglobin concentration (MCHC). Individual white blood cell counts, such as that of monocytes (MON), neutrophils (NEU), lymphocytes (LYM), eosinophils (EOS), basophils (BAS), reticulocytes, and platelets were evaluated.
# [3] = Example 8: body and organ weights in hTFR^KI/+ knock in mice; format: in vivo, mouse; conditions: for Organ weight Kidney / Organ weight Liver / Organ weight Spleen: day 15
# Method: as §1
# Liver, kidney, and spleen weights were measured on the day the mice were sacrificed (day 15), and the average organ weights for each group are presented in the tables below.
# [4] = reduction of mouse DMPK RNA, i.v., 3 doses on Days 1, 5, 9
substance,measurement,setting,value
1590463 BCY17896 (CPXDAYLGCXSYCX; not fully specified; non-natural residues; cyclised or stapled),Diaphragm mouse DMPK RNA (% control),"mouse DMPK RNA; i.v. 1 mg/kg on Days 1, 5, 9",60 % control
same,Gastrocnemius mouse DMPK RNA (% control),"mouse DMPK RNA; i.v. 1 mg/kg on Days 1, 5, 9",75 % control
same,Heart mouse DMPK RNA (% control),"mouse DMPK RNA; i.v. 1 mg/kg on Days 1, 5, 9",81 % control
same,Quadriceps mouse DMPK RNA (% control),"mouse DMPK RNA; i.v. 1 mg/kg on Days 1, 5, 9",74 % control
same,Tibialis Anterior mouse DMPK RNA (% control),"mouse DMPK RNA; i.v. 1 mg/kg on Days 1, 5, 9",84 % control
same,Diaphragm mouse DMPK RNA (% control),"mouse DMPK RNA; i.v. 10 mg/kg on Days 1, 5, 9",16 % control
same,Gastrocnemius mouse DMPK RNA (% control),"mouse DMPK RNA; i.v. 10 mg/kg on Days 1, 5, 9",28 % control
same,Heart mouse DMPK RNA (% control),"mouse DMPK RNA; i.v. 10 mg/kg on Days 1, 5, 9",56 % control
same,Quadriceps mouse DMPK RNA (% control),"mouse DMPK RNA; i.v. 10 mg/kg on Days 1, 5, 9",23 % control
same,Tibialis Anterior mouse DMPK RNA (% control),"mouse DMPK RNA; i.v. 10 mg/kg on Days 1, 5, 9",28 % control
same,Creatine (CREAT),"[1]; i.v. 1 mg/kg on Days 1, 5, 9",0.16 mg/dL
same,alanine aminotransferase (ALT),"[1]; i.v. 1 mg/kg on Days 1, 5, 9",40 U/L
same,albumin (ALB),"[1]; i.v. 1 mg/kg on Days 1, 5, 9",2.82 g/dL
same,aspartate aminotransferase (AST),"[1]; i.v. 1 mg/kg on Days 1, 5, 9",111 U/L
same,blood urea nitrogen (BUN),"[1]; i.v. 1 mg/kg on Days 1, 5, 9",24 mg/dL
same,total Protein (PROT),"[1]; i.v. 1 mg/kg on Days 1, 5, 9",4.83 g/dL
same,total bilirubin (TBIL),"[1]; i.v. 1 mg/kg on Days 1, 5, 9",0.12 mg/dL
same,Creatine (CREAT),"[1]; i.v. 10 mg/kg on Days 1, 5, 9",0.16 mg/dL
same,alanine aminotransferase (ALT),"[1]; i.v. 10 mg/kg on Days 1, 5, 9",34 U/L
same,albumin (ALB),"[1]; i.v. 10 mg/kg on Days 1, 5, 9",2.70 g/dL
same,aspartate aminotransferase (AST),"[1]; i.v. 10 mg/kg on Days 1, 5, 9",119 U/L
same,blood urea nitrogen (BUN),"[1]; i.v. 10 mg/kg on Days 1, 5, 9",22 mg/dL
same,total Protein (PROT),"[1]; i.v. 10 mg/kg on Days 1, 5, 9",4.57 g/dL
same,total bilirubin (TBIL),"[1]; i.v. 10 mg/kg on Days 1, 5, 9",0.11 mg/dL
same,Mean corpuscular volume (MCV),"[2]; i.v. 1 mg/kg on Days 1, 5, 9",40 fL
same,hematocrit (HCT),"[2]; i.v. 1 mg/kg on Days 1, 5, 9",47%
same,hemoglobin (HGB),"[2]; i.v. 1 mg/kg on Days 1, 5, 9",15 g/dL
same,mean corpuscular hemoglobin (MCH),"[2]; i.v. 1 mg/kg on Days 1, 5, 9",13 pg
same,mean corpuscular hemoglobin concentration (MCHC),"[2]; i.v. 1 mg/kg on Days 1, 5, 9",32 g/dL
same,red blood cell (RBC) count,"[2]; i.v. 1 mg/kg on Days 1, 5, 9",12 10^12/L
same,white blood cell (WBC) count,"[2]; i.v. 1 mg/kg on Days 1, 5, 9",8 10^3/μL
same,Mean corpuscular volume (MCV),"[2]; i.v. 10 mg/kg on Days 1, 5, 9",41 fL
same,hematocrit (HCT),"[2]; i.v. 10 mg/kg on Days 1, 5, 9",47%
same,hemoglobin (HGB),"[2]; i.v. 10 mg/kg on Days 1, 5, 9",15 g/dL
same,mean corpuscular hemoglobin (MCH),"[2]; i.v. 10 mg/kg on Days 1, 5, 9",13 pg
same,mean corpuscular hemoglobin concentration (MCHC),"[2]; i.v. 10 mg/kg on Days 1, 5, 9",31 g/dL
same,red blood cell (RBC) count,"[2]; i.v. 10 mg/kg on Days 1, 5, 9",11 10^12/L
same,white blood cell (WBC) count,"[2]; i.v. 10 mg/kg on Days 1, 5, 9",9 10^3/μL
1590463 BCY17901 (CPXDAYLGCXSYCEPWX; not fully specified; non-natural residues; cyclised or stapled),Diaphragm mouse DMPK RNA (% control),"mouse DMPK RNA; i.v. 1 mg/kg on Days 1, 5, 9",57 % control
same,Gastrocnemius mouse DMPK RNA (% control),"mouse DMPK RNA; i.v. 1 mg/kg on Days 1, 5, 9",74 % control
same,Heart mouse DMPK RNA (% control),"mouse DMPK RNA; i.v. 1 mg/kg on Days 1, 5, 9",75 % control
same,Quadriceps mouse DMPK RNA (% control),"mouse DMPK RNA; i.v. 1 mg/kg on Days 1, 5, 9",79 % control
same,Tibialis Anterior mouse DMPK RNA (% control),"mouse DMPK RNA; i.v. 1 mg/kg on Days 1, 5, 9",71 % control
same,Diaphragm mouse DMPK RNA (% control),"mouse DMPK RNA; i.v. 10 mg/kg on Days 1, 5, 9",14 % control
same,Gastrocnemius mouse DMPK RNA (% control),"mouse DMPK RNA; i.v. 10 mg/kg on Days 1, 5, 9",15 % control
same,Heart mouse DMPK RNA (% control),"mouse DMPK RNA; i.v. 10 mg/kg on Days 1, 5, 9",44 % control
same,Quadriceps mouse DMPK RNA (% control),"mouse DMPK RNA; i.v. 10 mg/kg on Days 1, 5, 9",14 % control
same,Tibialis Anterior mouse DMPK RNA (% control),"mouse DMPK RNA; i.v. 10 mg/kg on Days 1, 5, 9",14 % control
same,Creatine (CREAT),"[1]; i.v. 1 mg/kg on Days 1, 5, 9",0.15 mg/dL
same,alanine aminotransferase (ALT),"[1]; i.v. 1 mg/kg on Days 1, 5, 9",65 U/L
same,albumin (ALB),"[1]; i.v. 1 mg/kg on Days 1, 5, 9",2.76 g/dL
same,aspartate aminotransferase (AST),"[1]; i.v. 1 mg/kg on Days 1, 5, 9",107 U/L
same,blood urea nitrogen (BUN),"[1]; i.v. 1 mg/kg on Days 1, 5, 9",23 mg/dL
same,total Protein (PROT),"[1]; i.v. 1 mg/kg on Days 1, 5, 9",4.73 g/dL
same,total bilirubin (TBIL),"[1]; i.v. 1 mg/kg on Days 1, 5, 9",0.13 mg/dL
same,Creatine (CREAT),"[1]; i.v. 10 mg/kg on Days 1, 5, 9",0.15 mg/dL
same,alanine aminotransferase (ALT),"[1]; i.v. 10 mg/kg on Days 1, 5, 9",35 U/L
same,albumin (ALB),"[1]; i.v. 10 mg/kg on Days 1, 5, 9",2.63 g/dL
same,aspartate aminotransferase (AST),"[1]; i.v. 10 mg/kg on Days 1, 5, 9",98 U/L
same,blood urea nitrogen (BUN),"[1]; i.v. 10 mg/kg on Days 1, 5, 9",23 mg/dL
same,total Protein (PROT),"[1]; i.v. 10 mg/kg on Days 1, 5, 9",4.53 g/dL
same,total bilirubin (TBIL),"[1]; i.v. 10 mg/kg on Days 1, 5, 9",0.14 mg/dL
same,Mean corpuscular volume (MCV),"[2]; i.v. 1 mg/kg on Days 1, 5, 9",40 fL
same,hematocrit (HCT),"[2]; i.v. 1 mg/kg on Days 1, 5, 9",48%
same,hemoglobin (HGB),"[2]; i.v. 1 mg/kg on Days 1, 5, 9",15 g/dL
same,mean corpuscular hemoglobin (MCH),"[2]; i.v. 1 mg/kg on Days 1, 5, 9",13 pg
same,mean corpuscular hemoglobin concentration (MCHC),"[2]; i.v. 1 mg/kg on Days 1, 5, 9",31 g/dL
same,red blood cell (RBC) count,"[2]; i.v. 1 mg/kg on Days 1, 5, 9",12 10^12/L
same,white blood cell (WBC) count,"[2]; i.v. 1 mg/kg on Days 1, 5, 9",7 10^3/μL
same,Mean corpuscular volume (MCV),"[2]; i.v. 10 mg/kg on Days 1, 5, 9",41 fL
same,hematocrit (HCT),"[2]; i.v. 10 mg/kg on Days 1, 5, 9",47%
same,hemoglobin (HGB),"[2]; i.v. 10 mg/kg on Days 1, 5, 9",15 g/dL
same,mean corpuscular hemoglobin (MCH),"[2]; i.v. 10 mg/kg on Days 1, 5, 9",13 pg
same,mean corpuscular hemoglobin concentration (MCHC),"[2]; i.v. 10 mg/kg on Days 1, 5, 9",31 g/dL
same,red blood cell (RBC) count,"[2]; i.v. 10 mg/kg on Days 1, 5, 9",11 10^12/L
same,white blood cell (WBC) count,"[2]; i.v. 10 mg/kg on Days 1, 5, 9",9 10^3/μL
1590463-BCY17896: modified oligonucleotide 1590463 conjugated to CD71 bicycle ligand BCY17896 through a BCN linker (CPXDAYLGCXSYCX; not fully specified; non-natural residues; cyclised or stapled),Diaphragm ED50,mouse DMPK RNA; [4],1.4 mg/kg
same,Gastrocnemius ED50,mouse DMPK RNA; [4],2.9 mg/kg
same,Quadriceps ED50,mouse DMPK RNA; [4],2.6 mg/kg
same,Tibialis Anterior ED50,mouse DMPK RNA; [4],3.3 mg/kg
same,BAS (basophils),[2]; 1 mg/kg i.v.,0.07%
same,LYM (lymphocytes),[2]; 1 mg/kg i.v.,85%
same,MON (monocytes),[2]; 1 mg/kg i.v.,5%
same,NEU (neutrophils),[2]; 1 mg/kg i.v.,8%
same,PLT (platelets),[2]; 1 mg/kg i.v.,1170 10^9/L
same,RETI (reticulocytes),[2]; 1 mg/kg i.v.,439 10^3/μL
same,BAS (basophils),[2]; 10 mg/kg i.v.,0.07%
same,LYM (lymphocytes),[2]; 10 mg/kg i.v.,84%
same,MON (monocytes),[2]; 10 mg/kg i.v.,6%
same,NEU (neutrophils),[2]; 10 mg/kg i.v.,8%
same,PLT (platelets),[2]; 10 mg/kg i.v.,1087 10^9/L
same,RETI (reticulocytes),[2]; 10 mg/kg i.v.,389 10^3/μL
same,Body weight Day 1,[3]; 1 mg/kg i.v.,27 g
same,Body weight Day 15,[3]; 1 mg/kg i.v.,28 g
same,Organ weight Kidney,[3]; 1 mg/kg i.v.,0.35 g
same,Organ weight Liver,[3]; 1 mg/kg i.v.,1.49 g
same,Organ weight Spleen,[3]; 1 mg/kg i.v.,0.07 g
same,Body weight Day 1,[3]; 10 mg/kg i.v.,24 g
same,Body weight Day 15,[3]; 10 mg/kg i.v.,25 g
same,Organ weight Kidney,[3]; 10 mg/kg i.v.,0.33 g
same,Organ weight Liver,[3]; 10 mg/kg i.v.,1.39 g
same,Organ weight Spleen,[3]; 10 mg/kg i.v.,0.07 g
